Patent US20140193915, “COMPOSITIONS AND METHODS FOR CUSTOM SITE-SPECIFIC DNA RECOMBINASES” (Monsanto Technology, LLC, published 2014)

Experiments:
[1] = target: T1, sN-TALER IV-2 (GinH106Y-TALE13) (synthetic); assay: cell_activity; E. coli; conditions: tags: 6-His
T1 chain: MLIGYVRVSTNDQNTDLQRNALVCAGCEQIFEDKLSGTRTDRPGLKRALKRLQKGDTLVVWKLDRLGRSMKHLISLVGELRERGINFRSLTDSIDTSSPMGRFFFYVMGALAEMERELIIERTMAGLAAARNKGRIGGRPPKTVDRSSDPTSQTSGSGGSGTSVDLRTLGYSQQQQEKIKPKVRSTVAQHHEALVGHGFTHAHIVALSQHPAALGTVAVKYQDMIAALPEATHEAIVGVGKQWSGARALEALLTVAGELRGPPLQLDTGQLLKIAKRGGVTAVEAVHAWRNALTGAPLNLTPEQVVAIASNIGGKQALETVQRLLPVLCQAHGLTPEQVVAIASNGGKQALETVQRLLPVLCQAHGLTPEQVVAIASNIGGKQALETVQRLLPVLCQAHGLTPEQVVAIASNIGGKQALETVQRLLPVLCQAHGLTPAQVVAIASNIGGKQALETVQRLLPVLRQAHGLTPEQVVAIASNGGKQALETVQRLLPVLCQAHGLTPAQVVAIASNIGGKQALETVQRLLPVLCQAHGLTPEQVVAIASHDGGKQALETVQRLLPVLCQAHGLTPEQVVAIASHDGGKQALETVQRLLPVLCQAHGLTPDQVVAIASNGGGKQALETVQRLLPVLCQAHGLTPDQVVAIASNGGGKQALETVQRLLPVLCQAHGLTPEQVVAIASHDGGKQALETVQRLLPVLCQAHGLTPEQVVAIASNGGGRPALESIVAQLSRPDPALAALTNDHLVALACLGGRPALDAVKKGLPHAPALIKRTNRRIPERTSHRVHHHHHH
In short: (§1)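 DH5alpha cells co-transformed (heat shock or electroporation) with N-TALER expression and reporter plasmids at ~1:1 mass ratio; reporter alone as control. Plated on chloramphenicol/kanamycin/X-gal, grown 37° C. for 18 to 36 hours; recombination scored by colony colour.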

sN-TALER IV-3 = target: T2, sN-TALER IV-3 (synthetic); assay: cell_activity; E. coli; conditions: tags: 6-His
T2 chain: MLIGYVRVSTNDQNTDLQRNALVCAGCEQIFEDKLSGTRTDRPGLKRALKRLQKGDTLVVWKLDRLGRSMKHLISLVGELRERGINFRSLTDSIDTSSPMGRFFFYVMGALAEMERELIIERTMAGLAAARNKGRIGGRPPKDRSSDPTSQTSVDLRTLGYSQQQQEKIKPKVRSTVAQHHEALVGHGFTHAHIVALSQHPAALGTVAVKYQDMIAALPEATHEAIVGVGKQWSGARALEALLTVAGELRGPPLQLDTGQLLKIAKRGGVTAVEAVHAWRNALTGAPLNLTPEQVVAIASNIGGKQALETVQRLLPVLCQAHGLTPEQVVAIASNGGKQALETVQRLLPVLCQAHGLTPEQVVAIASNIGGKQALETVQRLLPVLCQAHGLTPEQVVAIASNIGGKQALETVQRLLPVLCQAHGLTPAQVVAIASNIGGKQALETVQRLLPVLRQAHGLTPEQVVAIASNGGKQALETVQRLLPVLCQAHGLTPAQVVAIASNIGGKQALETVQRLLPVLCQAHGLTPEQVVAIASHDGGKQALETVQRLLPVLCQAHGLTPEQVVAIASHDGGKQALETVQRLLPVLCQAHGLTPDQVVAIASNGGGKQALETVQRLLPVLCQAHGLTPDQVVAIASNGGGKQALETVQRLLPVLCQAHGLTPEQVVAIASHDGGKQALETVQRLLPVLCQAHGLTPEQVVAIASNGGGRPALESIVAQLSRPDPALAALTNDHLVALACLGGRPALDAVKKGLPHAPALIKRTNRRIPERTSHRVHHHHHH
In short: as §1

B1: Gin18TALE+0 (dsDNA)
DNA 1: AGAAGGTATTTATACCAAAACCATGGTTTACATATAAATACCTTCT
DNA 2: AGAAGGTATTTATATGTAAACCATGGTTTTGGTATAAATACCTTCT
Question: Which results are given for B1?
Answer: activity [1]: 1 score; activity (sN-TALER IV-3): 2 score

B2: Gin20TALE+0 (dsDNA)
DNA 1: AGAAGGTATTTATATCCAAAACCATGGTTTACAGTATAAATACCTTCT
DNA 2: AGAAGGTATTTATACTGTAAACCATGGTTTTGGATATAAATACCTTCT
Question: Which activity [1] does the source give for B2 here?
Answer: 1 score

Question: What about the activity (sN-TALER IV-3) of the same binder?
Answer: 1 score
